Like-named read-outs stand apart in the source and are kept apart here.
Tests used:
Assay in all cases: tryptophan fluorescence quenching
[1] = molecular target: T1, Bs-CspB (Bacillus subtilis, UniProt P32081 1-67)
[2] = molecular target: Bs-CspB K13Q (Bacillus subtilis, UniProt P32081 1-67, K13Q)
[3] = molecular target: Bs-CspB G35A (Bacillus subtilis, UniProt P32081 1-67, G35A)
[4] = molecular target: Bs-CspB F27A (Bacillus subtilis, UniProt P32081 1-67, F27A)
[5] = molecular target: Bs-CspB P58A (Bacillus subtilis, UniProt P32081 1-67, P58A)
[6] = molecular target: Bs-CspB D25A (Bacillus subtilis, UniProt P32081 1-67, D25A)
[7] = molecular target: Bs-CspB F15Y (Bacillus subtilis, UniProt P32081 1-67, F15Y)
[8] = molecular target: Bs-CspB G54A (Bacillus subtilis, UniProt P32081 1-67, G54A)
[9] = molecular target: Bs-CspB F17A (Bacillus subtilis, UniProt P32081 1-67, F17A)
[10] = molecular target: Bs-CspB K7A (Bacillus subtilis, UniProt P32081 1-67, K7A)
[11] = molecular target: Bs-CspB F38A (Bacillus subtilis, UniProt P32081 1-67, F38A)
[12] = molecular target: Bs-CspB G35P (Bacillus subtilis, UniProt P32081 1-67, G35P)
[13] = molecular target: Bs-CspB Q59A (Bacillus subtilis, UniProt P32081 1-67, Q59A)
[14] = molecular target: Bs-CspB F30W (Bacillus subtilis, UniProt P32081 1-67, F30W)
[15] = molecular target: Bs-CspB R56A (Bacillus subtilis, UniProt P32081 1-67, R56A)
[16] = molecular target: Bs-CspB F30A (Bacillus subtilis, UniProt P32081 1-67, F30A)
[17] = molecular target: Bs-CspB F15A (Bacillus subtilis, UniProt P32081 1-67, F15A)
[18] = molecular target: Bs-CspB H29Q (Bacillus subtilis, UniProt P32081 1-67, H29Q)
[19] = molecular target: Bs-CspB G54P (Bacillus subtilis, UniProt P32081 1-67, G54P)
[20] = molecular target: T1, Bs-CspB; remark: listed apart in the source
[21] = molecular target: T1, Bs-CspB; remark: listed apart in the source
[22] = molecular target: T1, Bs-CspB; remark: listed apart in the source
[23] = molecular target: T1, Bs-CspB; remark: listed apart in the source
[24] = molecular target: T1, Bs-CspB; remark: listed apart in the source
[25] = molecular target: T1, Bs-CspB; remark: listed apart in the source

Binder TATTGGT (ssDNA) [Y-box7] has a Kd [1] of 530 ± 50 nM.

TTTTTTT (ssDNA) [dT7] showed a Kd [2] of 25 ± 3 nM, a Kd [3] of 1.1 ± 0.3 nM and a Kd [4] of 286 ± 7 nM. For the same binder, the Kd [5] was 1.3 ± 0.2 nM, the Kd [6] was 21.4 ± 0.5 nM and the Kd [7] was 1.4 ± 0.4 nM. It also gave a Kd [8] of 1.3 ± 0.3 nM, a Kd [9] of 345 ± 63 nM and a Kd [10] of 6.4 ± 0.6 nM. It also gave a Kd [11] of 228 ± 9 nM, a Kd [12] of 118 ± 5 nM and a Kd [13] of 2.7 ± 0.4 nM. The Kd [14] was 1.3 ± 0.3 nM, the Kd [15] was 11.8 ± 1.4 nM and the Kd [16] was 208 ± 11 nM. For the same binder, the Kd [17] was 135 ± 4 nM, the Kd [18] was 104 ± 6 nM and the Kd [19] was 220 ± 9 nM. For the same binder, the Kd [20] was 1.8 ± 0.4 nM.

In the case of GAGTTTTGGTCTTGAA (ssDNA) [dcb2_b], the Kd [21] is reported as 43 ± 2 nM.

Binder CTGATTGGCCAA (ssDNA) [Y-box12] has a Kd [22] of 2030 ± 390 nM.

Work on CTCTCTC (ssDNA) yielded a Kd [23] of 10.8 ± 0.9 nM.

Work on CTCTTTC (ssDNA) yielded a Kd [23] of 3.9 ± 0.2 nM.

CTTTTTC (ssDNA) gave a Kd [23] of 33.7 ± 4.1 nM.

GTTTTGTAAGAGT (ssDNA) [dcb2ds_13] was tested, and the Kd [21] was 66 ± 21 nM.

Work on ATTGG (ssDNA) [Y-box5] yielded a Kd [24] of 5300 ± 1000 nM.

TTTTTT (ssDNA) [dT6] showed a Kd [24] of 326 ± 20 nM.

AAGTTCTGGTTTTGAG (ssDNA) [dcb2_br] gave a Kd [21] of 30 ± 2 nM.

With TTATTAG (ssDNA) [dcb1] the Kd [24] was 20 ± 3 nM.

Work on ATTATTTTTGTTC (ssDNA) [dcb1_a] yielded a Kd [21] of 44 ± 2 nM.

Binder TTTAAGAAGAAAGTTTT (ssDNA) [dcb2_a] has a Kd [21] of 460 ± 34 nM.

ATCCTACTGATTGGCCCAGGTGCTG (ssDNA) [Y-box25] was tested, and the Kd [25] was 3920 ± 45 nM.

CTCCTTC (ssDNA) was tested, and the Kd [23] was 12.5 ± 0.6 nM.

With CTCTTCC (ssDNA) the Kd [23] was 66.2 ± 4.8 nM.

In the case of CCCCCC (ssDNA) [dC6], the Kd [24] is reported as 12600 ± 1000 nM.

Work on GAGCAAGAATAGG (ssDNA) [dcb1_b] yielded a Kd [21] of 1160 ± 90 nM.

GGATAAGAACGAG (ssDNA) [dcb1_br] was tested, and the Kd [21] was 1090 ± 110 nM.

Source: publication PMC1636342
